Patent publication US20250188157A1 (UNIVERSITY OF TOKYO, published 2025)
Substitutions are numbered along the chain they refer to.

B1: RS_H007_L001 (antibody, V domains shown)
VH: EVQLQQSGSELVKSGASVKLSCTVSGFNFTNYYIHWVRQRTEQGLEWIGRIDPENNQTTYAPKFQGKATMTADTSSNTAYLQLTSLTSEDTAVYYCARSTVLDYWGHGTTLTVSS
VL: DVLMTQSPASLSVSLGDRATISCRASQSIVHTNGNTYLEWYLQKPGQSPKLLIYKVSNRFSGVPDRFSGSGSGTDFILKISRVEAEDLGVYYCFQGSHVPPTFGGGTKLEVK
B2: RS_H000_L000GR Fab (Fab, V domains shown)
VH: B1 VH with N31D, N56D, Q57E
VL: B1 VL with S7T, A9L, S12P, R18Q, T20S
notes: also called IgG W27 Fab
B3: W27G2 antibody (mouse W27G2 hybridoma-producing IgA antibody) (antibody, V domains shown)
VH: B1 VH with N31D, N56D, Q57E
VL: DVLMTQTPLSLPVSLGDQASISCRASQSIVHTNGNTYLEWYLQKPGQSPKLLIYKVSNRFSGVPDRFSGSGSGTDFILKISRVEAEDLGVYYCFQGSHVPPTFGGGTKLEVKR
notes: Hybridoma-producing IgA; Both names are treated as one molecule here; W27G2CHT is the hydroxyapatite crude preparation, W27G2GF the gel filtration multimer fraction; also called W27 antibody; W27G2CHT
B4: RS_H007_L002 (antibody, V domains shown)
VH: B1 VH
VL: B1 VL with A19V
B5: RS_H007_L004 (antibody, V domains shown)
VH: B1 VH
VL: B1 VL with L11M, A25S
B6: RS_H000_L001 (antibody, V domains shown)
VH: B1 VH with N31D, N56D, Q57E
VL: B1 VL
notes: recombinant multimeric IgA co-expressed with J chain (H:L:J = 2:2:1); mainly dimers by SDS-PAGE; also called rW27
B7: RS_H007_L005 (antibody, V domains shown)
VH: B1 VH
VL: B1 VL with A25S
B8: RS_H000_L005 (antibody, V domains shown)
VH: B1 VH with N31D, N56D, Q57E
VL: B1 VL with A25S

Legend:
[1] = molecular target: T1, E. coli wild-type SHMT, GST fusion protein (E. coli, UniProt P0A825 1-417); assay: ELISA, GST fusion protein coated at 2 ug/ml, dilution series of antibody
T1 construct: Overexpressed in E. coli as GST fusion protein, purified, coated at 2 ug/ml on the ELISA plate; not shown: GST tag
T1 sequence: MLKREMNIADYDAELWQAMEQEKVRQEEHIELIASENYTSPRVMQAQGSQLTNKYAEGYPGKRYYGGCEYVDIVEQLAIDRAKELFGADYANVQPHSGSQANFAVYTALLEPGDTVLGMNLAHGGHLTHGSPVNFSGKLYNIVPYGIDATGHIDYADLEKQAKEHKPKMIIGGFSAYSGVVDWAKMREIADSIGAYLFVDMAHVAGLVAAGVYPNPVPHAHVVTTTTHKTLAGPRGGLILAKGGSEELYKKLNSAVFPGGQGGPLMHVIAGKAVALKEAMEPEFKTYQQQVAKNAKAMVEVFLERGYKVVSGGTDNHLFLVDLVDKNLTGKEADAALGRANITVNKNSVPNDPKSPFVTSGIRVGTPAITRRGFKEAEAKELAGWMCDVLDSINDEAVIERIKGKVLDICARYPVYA

[2] = molecular target: T2, E. coli SHMT (25-45) (E. coli); assay: X-ray crystal structure of the complex
T2 construct: Expressed as GST fusion, cleaved with HRV 3C protease and purified for crystallisation; also called E. coli SHMT antigen
T2 peptide: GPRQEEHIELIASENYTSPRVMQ

[3] = molecular target: T3, C. difficile iPGM (486-509) (Clostridium difficile); assay: X-ray crystal structure of the complex
T3 construct: the blank is left out; also called C. difficile iPGM antigen
T3 peptide: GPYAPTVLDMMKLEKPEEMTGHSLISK

[4] = molecular target: T4, E. coli iPGM (E. coli, UniProt P37689 1-514, limits assumed); assay: Western blot
T4 sequence (looked up): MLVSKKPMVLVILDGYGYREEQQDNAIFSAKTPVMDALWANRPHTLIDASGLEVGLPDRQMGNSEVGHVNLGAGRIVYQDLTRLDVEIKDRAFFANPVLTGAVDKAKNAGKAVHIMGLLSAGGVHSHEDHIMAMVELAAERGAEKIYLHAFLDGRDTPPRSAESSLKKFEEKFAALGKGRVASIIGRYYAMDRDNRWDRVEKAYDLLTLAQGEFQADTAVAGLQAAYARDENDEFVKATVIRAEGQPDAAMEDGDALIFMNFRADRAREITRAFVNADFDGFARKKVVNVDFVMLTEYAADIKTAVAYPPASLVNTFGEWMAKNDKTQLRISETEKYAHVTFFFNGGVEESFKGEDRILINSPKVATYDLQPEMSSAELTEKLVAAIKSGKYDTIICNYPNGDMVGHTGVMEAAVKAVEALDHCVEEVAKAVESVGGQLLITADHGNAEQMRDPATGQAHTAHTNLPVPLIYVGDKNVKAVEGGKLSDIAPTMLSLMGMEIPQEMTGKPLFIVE

| Binder | binding result [1] | other results |
| --- | --- | --- |
| B1 | binds | – |
| B2 | – | binding result [2]: binds; binding result [3]: binds |
| B3 | binds | binding result [4]: no binding |
| B4 | binds | – |
| B5 | binds | – |
| B6 | binds | – |
| B7 | binds | – |
| B8 | binds | – |
